Experimental findings from article PMC6429324 are described below.

For data set [1], the system named is bevacizumab (Avastin) (humanized IgG (organism not stated)). As to the kind of experiment: bead pull-down, HT-RPLC of eluate. The settings on record: 10 ug/mL in human plasma, 5'-biotin, Plasma samples diluted 10x in 175 mM trehalose, 42 mM NaH2PO4, 8 mM Na2HPO4, 0.4% Tween-20, pH 7.4, 0.1% peptone, room temperature, 1 h, bead comparison: beads ….
Data set [2] has the same test system. As to the kind of experiment: bead pull-down, HT-RPLC of residual solution. The settings on record: 50 ug/mL bevacizumab, Plasma samples diluted 10x in 175 mM trehalose, 42 mM NaH2PO4, 8 mM Na2HPO4, 0.4% Tween-20, pH 7.4, 0.1% peptone, room temperature, 1 h, bead comparison: beads …; for fraction of antibody not captured (% not captured): immobilization effect, 5'-aminohexyl.

Regarding “GCGGTTGGTGGTAGTTACGTTCGC [anti-bevacizumab DNA aptamer, 5'-biotin]”, the binding signal in data set [1] (first use of beads) is 101 % recovery; in data set [1] (third use of beads) it was 97.3 % recovery; in data set [2] (streptavidin beads, 5'-biotin) it was more than 99.8 % captured.
For “GCGGTTGGTGGTAGTTACGTTCGC [anti-bevacizumab DNA aptamer, 5'-aminohexyl]”, the fraction of antibody not captured (% not captured) in data set [2] (carboxylic acid beads) was found to be 85.5; in data set [2] (tosylactivated beads), 75.8.
